In paper PMC9536601 (2022):

Target: T1, Ad2 hexon, on wild-type human adenovirus type 2 virions (human adenovirus type 2, UniProt P03277 1-968)
T1 chain: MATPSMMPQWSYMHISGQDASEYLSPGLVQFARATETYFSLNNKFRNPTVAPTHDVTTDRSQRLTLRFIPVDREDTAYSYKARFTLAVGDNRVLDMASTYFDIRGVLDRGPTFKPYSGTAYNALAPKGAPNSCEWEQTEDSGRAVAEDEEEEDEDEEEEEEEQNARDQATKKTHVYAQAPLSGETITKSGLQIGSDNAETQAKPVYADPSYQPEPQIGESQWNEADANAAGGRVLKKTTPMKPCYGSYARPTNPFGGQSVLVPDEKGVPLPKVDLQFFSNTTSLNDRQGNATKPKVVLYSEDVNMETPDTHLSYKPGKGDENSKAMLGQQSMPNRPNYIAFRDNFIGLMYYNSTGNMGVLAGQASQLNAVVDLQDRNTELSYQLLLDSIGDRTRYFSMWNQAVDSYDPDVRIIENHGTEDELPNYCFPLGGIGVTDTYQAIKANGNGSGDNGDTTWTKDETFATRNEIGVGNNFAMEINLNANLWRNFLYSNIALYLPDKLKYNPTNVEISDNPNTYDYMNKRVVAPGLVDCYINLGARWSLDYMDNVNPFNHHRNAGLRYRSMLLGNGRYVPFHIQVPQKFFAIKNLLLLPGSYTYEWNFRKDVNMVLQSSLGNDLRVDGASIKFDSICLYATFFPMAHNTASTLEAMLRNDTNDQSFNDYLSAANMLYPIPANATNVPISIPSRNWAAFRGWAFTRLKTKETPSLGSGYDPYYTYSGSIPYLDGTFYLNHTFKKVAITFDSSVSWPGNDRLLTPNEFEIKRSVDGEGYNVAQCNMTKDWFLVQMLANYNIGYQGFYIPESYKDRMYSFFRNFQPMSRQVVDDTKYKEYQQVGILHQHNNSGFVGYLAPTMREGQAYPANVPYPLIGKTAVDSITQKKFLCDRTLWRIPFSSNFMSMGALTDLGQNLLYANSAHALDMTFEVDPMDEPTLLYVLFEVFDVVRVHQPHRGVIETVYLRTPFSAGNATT
Experiment: SPR

B1: mouse coagulation factor X (natural protein)
chain 1: ANSFFEEFKKGNLERECMEEICSYEEVREIFEDDEKTKEYWTKYKDGDQCESSPCQNQGACRDGIGGYTCTCSEGFEGKNCELFVRKLCRLDNGDCDQFCREEQNSVVCSCASGYFLGNDGKSCISTAPFPCGKITTGRR
chain 2: VALNTSDSELDLEDALLDEDFLSPTENPIELLNLNETQPERSSDDLVRIVGGRECKDGECPWQALLINEDNEGFCGGTILNEFYILTAAHCLHQARRFKVRVGDRNTEKEEGNEMVHEVDVVIKHNKFQRDTYDYDIAVLRLKTPITFRMNVAPACLPQKDWAESTLMTQKTGIVSGFGRTHEKGRQSNILKMLEVPYVDRNTCKLSTSFSITQNMFCAGYEAKLEDACQGDSGGPHVTRFKNTYYVTGIVSWGEGCARKGKYGIYTKVTTFLKWIDRSMKARVGPTAETPRTAGPPN
modifications: gamma-carboxylated glutamate residues in the Gla domain
B1 showed a Kd of 0.76 nM.
